# Laboratory results: patent US20120252698
# System: T1, PhosFluor (the fluorescent protein having the amino acid sequence set forth in SEQ ID NO: 10)
# T1 sequence: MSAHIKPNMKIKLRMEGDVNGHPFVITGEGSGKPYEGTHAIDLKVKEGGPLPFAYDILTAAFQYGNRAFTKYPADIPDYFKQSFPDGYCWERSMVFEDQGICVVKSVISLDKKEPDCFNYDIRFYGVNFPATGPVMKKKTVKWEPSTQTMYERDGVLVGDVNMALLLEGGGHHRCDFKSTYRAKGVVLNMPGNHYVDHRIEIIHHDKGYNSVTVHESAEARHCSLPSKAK
# Chain of Akt1 (P31749 whole entry): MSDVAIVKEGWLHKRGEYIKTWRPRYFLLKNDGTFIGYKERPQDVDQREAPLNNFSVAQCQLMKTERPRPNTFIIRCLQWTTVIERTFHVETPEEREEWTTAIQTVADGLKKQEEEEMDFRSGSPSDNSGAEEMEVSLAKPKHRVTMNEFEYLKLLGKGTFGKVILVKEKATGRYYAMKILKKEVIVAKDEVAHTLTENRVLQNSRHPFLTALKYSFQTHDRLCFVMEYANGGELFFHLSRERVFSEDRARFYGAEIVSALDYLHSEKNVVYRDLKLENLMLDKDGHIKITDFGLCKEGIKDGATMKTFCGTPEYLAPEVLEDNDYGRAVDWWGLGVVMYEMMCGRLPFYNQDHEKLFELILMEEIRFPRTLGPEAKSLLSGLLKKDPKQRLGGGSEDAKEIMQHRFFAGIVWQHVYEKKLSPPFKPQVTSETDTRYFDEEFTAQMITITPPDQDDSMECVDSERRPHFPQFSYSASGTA
substance,measurement,value
Akt1,Western blot analyses of phosphorylation,"serine and threonine sites on PhosFluor are phosphorylated by PKA, PKC, mitogen-activated protein kinase (MAPK), cell division control protein 2 (cdc2), and Akt1"
same,emission spectrum of PhosFluor,"A marked shift in the emission spectrum of PhosFluor was observed when this molecule was incubated with PKA, PKC or Akt1"
same,excitation spectrum of PhosFluor,"the excitation spectrum of PhosFluor was dramatically altered upon phosphorylation by different protein kinases, including Akt1"
PKA,Western blot analyses of phosphorylation,"serine and threonine sites on PhosFluor are phosphorylated by PKA, PKC, mitogen-activated protein kinase (MAPK), cell division control protein 2 (cdc2), and Akt1"
same,emission spectrum of PhosFluor,"A marked shift in the emission spectrum of PhosFluor was observed when this molecule was incubated with PKA, PKC or Akt1"
same,upward shift of apparent molecular weight on SDS-PAGE,"To a lesser extent, higher molecular weight species were also observed upon phosphorylation by PKA"
Src,"SDS-PAGE and immunoblot of PhosFluor incubated with kinase (total protein, phospho-tyrosine, mobility shift)",PhosFluor is an avid substrate for PKC and Src
alkaline phosphatase,fluorescence intensity of PhosFluor over time,This treatment virtually abolished the increase in fluorescence intensity of PhosFluor over time
cell division control protein 2 (cdc2),Western blot analyses of phosphorylation,"serine and threonine sites on PhosFluor are phosphorylated by PKA, PKC, mitogen-activated protein kinase (MAPK), cell division control protein 2 (cdc2), and Akt1"
same,fluorescence intensity of PhosFluor incubated with kinase,The fluorescence intensity of PhosFluor also increased above background levels when the protein was incubated with cdc2 and MAPK (data not shown)
mitogen-activated protein kinase (MAPK),Western blot analyses of phosphorylation,"serine and threonine sites on PhosFluor are phosphorylated by PKA, PKC, mitogen-activated protein kinase (MAPK), cell division control protein 2 (cdc2), and Akt1"
same,fluorescence intensity of PhosFluor incubated with kinase,The fluorescence intensity of PhosFluor also increased above background levels when the protein was incubated with cdc2 and MAPK (data not shown)
protein kinase C (PKC),"SDS-PAGE and immunoblot of PhosFluor incubated with kinase (total protein, phospho-tyrosine, mobility shift)",PhosFluor is an avid substrate for PKC and Src
same,Western blot analyses of phosphorylation,"serine and threonine sites on PhosFluor are phosphorylated by PKA, PKC, mitogen-activated protein kinase (MAPK), cell division control protein 2 (cdc2), and Akt1"
same,emission spectrum of PhosFluor,"A marked shift in the emission spectrum of PhosFluor was observed when this molecule was incubated with PKA, PKC or Akt1"
same,upward shift of apparent molecular weight on SDS-PAGE,"when phosphorylated by PKC, multiple higher molecular weight species of PhosFluor were resolved by SDS-PAGE"
